Experiment: in vivo
Design: species or system mice
Conditions: male, NODSCID 1L2RγKO, mouse, iv, total radioactivity

Work on `O=C(O)CCC[C@H](NC(=O)N[C@@H](CCCCNC(=O)[C@H](Cc1c2ccccc2cc2ccccc12)NC(=O)[C@H]1CC[C@H](CNC(=O)[C@H](CCCCNC(=O)CN2CCN(CC(=O)O)CCN(CC(=O)O)CCN(CC(=O)O)CC2)NC(=O)CNC(=O)CCCc2ccc(Cl)cc2)CC1)C(=O)O)C(=O)O` [177Lu-HTK03153, metal not drawn] yielded a tissue uptake at 1 h (Adrenal glands uptake) of 4.52 ± 0.46 %ID/g, a tissue uptake at 4 h (Adrenal glands uptake) of 3.5 ± 0.46 %ID/g and a tissue uptake at 24 h (Adrenal glands uptake) of 2.35 ± 0.47 %ID/g. The tissue uptake at 72 h (Adrenal glands uptake) was 1.2 ± 0.26 %ID/g, the tissue uptake at 120 h (Adrenal glands uptake) was 0.82 ± 0.19 %ID/g and the tissue uptake at 1 h (Blood uptake) was 24.7 ± 2.11 %ID/g. It also gave a tissue uptake at 4 h (Blood uptake) of 18.8 ± 1.16 %ID/g, a tissue uptake at 24 h (Blood uptake) of 7.44 ± 1.12 %ID/g and a tissue uptake at 72 h (Blood uptake) of 1.46 ± 0.58 %ID/g. The tissue uptake at 120 h (Blood uptake) was 0.37 ± 0.13 %ID/g, the tissue uptake at 1 h (Bone uptake) was 1.26 ± 0.15 %ID/g and the tissue uptake at 4 h (Bone uptake) was 0.83 ± 0.15 %ID/g. It also gave a tissue uptake at 24 h (Bone uptake) of 0.4 ± 0.08 %ID/g, a tissue uptake at 72 h (Bone uptake) of 0.16 ± 0.06 %ID/g and a tissue uptake at 120 h (Bone uptake) of 0.06 ± 0.04 %ID/g. For the same compound, the tissue uptake at 1 h (Brain uptake) was 0.35 ± 0.03 %ID/g, the tissue uptake at 4 h (Brain uptake) was 0.27 ± 0.03 %ID/g and the tissue uptake at 24 h (Brain uptake) was 0.13 ± 0.02 %ID/g. The tissue uptake at 72 h (Brain uptake) was 0.05 ± 0.02 %ID/g, the tissue uptake at 120 h (Brain uptake) was 0.03 %ID/g and the tissue uptake at 1 h (Fat uptake) was 1.61 ± 0.36 %ID/g. For the same compound, the tissue uptake at 4 h (Fat uptake) was 1.46 ± 0.36 %ID/g, the tissue uptake at 24 h (Fat uptake) was 0.66 ± 0.16 %ID/g and the tissue uptake at 72 h (Fat uptake) was 0.3 ± 0.13 %ID/g. The tissue uptake at 120 h (Fat uptake) was 0.19 ± 0.09 %ID/g, the tissue uptake at 1 h (Heart uptake) was 5.95 ± 0.44 %ID/g and the tissue uptake at 4 h (Heart uptake) was 4.26 ± 0.44 %ID/g. For the same compound, the tissue uptake at 24 h (Heart uptake) was 1.9 ± 0.25 %ID/g, the tissue uptake at 72 h (Heart uptake) was 0.68 ± 0.25 %ID/g and the tissue uptake at 120 h (Heart uptake) was 0.32 ± 0.07 %ID/g. It also gave a tissue uptake at 1 h (Intestine uptake) of 1.56 ± 0.16 %ID/g, a tissue uptake at 4 h (Intestine uptake) of 1.22 ± 0.16 %ID/g and a tissue uptake at 24 h (Intestine uptake) of 0.78 ± 0.1 %ID/g. The tissue uptake at 72 h (Intestine uptake) was 0.3 ± 0.1 %ID/g, the tissue uptake at 120 h (Intestine uptake) was 0.18 ± 0.08 %ID/g and the tissue uptake at 1 h (Kidneys uptake) was 10 ± 1.09 %ID/g. It also gave a tissue uptake at 4 h (Kidneys uptake) of 9.1 ± 1.09 %ID/g, a tissue uptake at 24 h (Kidneys uptake) of 8.81 ± 1.06 %ID/g and a tissue uptake at 72 h (Kidneys uptake) of 4.95 ± 2.39 %ID/g. The tissue uptake at 120 h (Kidneys uptake) was 2.81 ± 0.35 %ID/g, the tissue uptake at 1 h (Lacrimal uptake) was 0.35 ± 0.07 %ID/g and the tissue uptake at 4 h (Lacrimal uptake) was 0.35 ± 0.14 %ID/g. It also gave a tissue uptake at 24 h (Lacrimal uptake) of 0.18 ± 0.06 %ID/g, a tissue uptake at 72 h (Lacrimal uptake) of 0.05 ± 0.05 %ID/g and a tissue uptake at 120 h (Lacrimal uptake) of 0.02 ± 0.02 %ID/g. The tissue uptake at 1 h (Liver uptake) was 3.61 ± 0.65 %ID/g, the tissue uptake at 4 h (Liver uptake) was 3.19 ± 0.65 %ID/g and the tissue uptake at 24 h (Liver uptake) was 1.52 ± 0.25 %ID/g. The tissue uptake at 72 h (Liver uptake) was 0.73 ± 0.21 %ID/g, the tissue uptake at 120 h (Liver uptake) was 0.4 ± 0.03 %ID/g and the tissue uptake at 1 h (Lungs uptake) was 10.8 ± 1.38 %ID/g. It also gave a tissue uptake at 4 h (Lungs uptake) of 9.4 ± 1.38 %ID/g, a tissue uptake at 24 h (Lungs uptake) of 3.93 ± 0.41 %ID/g and a tissue uptake at 72 h (Lungs uptake) of 1.87 ± 1.31 %ID/g. The tissue uptake at 120 h (Lungs uptake) was 0.56 ± 0.12 %ID/g, the tissue uptake at 1 h (Muscle uptake) was 1.54 ± 0.16 %ID/g and the tissue uptake at 4 h (Muscle uptake) was 1.19 ± 0.16 %ID/g. For the same compound, the tissue uptake at 24 h (Muscle uptake) was 0.56 ± 0.1 %ID/g, the tissue uptake at 72 h (Muscle uptake) was 0.18 ± 0.07 %ID/g and the tissue uptake at 120 h (Muscle uptake) was 0.07 ± 0.01 %ID/g. For the same compound, the tissue uptake at 1 h (Pancreas uptake) was 2.17 ± 0.21 %ID/g, the tissue uptake at 4 h (Pancreas uptake) was 1.6 ± 0.21 %ID/g and the tissue uptake at 24 h (Pancreas uptake) was 0.77 ± 0.09 %ID/g. The tissue uptake at 72 h (Pancreas uptake) was 0.29 ± 0.13 %ID/g, the tissue uptake at 120 h (Pancreas uptake) was 0.15 ± 0.04 %ID/g and the tissue uptake at 1 h (Salivary uptake) was 3.56 ± 0.39 %ID/g. It also gave a tissue uptake at 4 h (Salivary uptake) of 2.86 ± 0.39 %ID/g, a tissue uptake at 24 h (Salivary uptake) of 1.25 ± 0.14 %ID/g and a tissue uptake at 72 h (Salivary uptake) of 0.68 ± 0.22 %ID/g. It also gave a tissue uptake at 120 h (Salivary uptake) of 0.37 ± 0.04 %ID/g, a tissue uptake at 1 h (Seminal uptake) of 1.3 ± 0.32 %ID/g and a tissue uptake at 4 h (Seminal uptake) of 1.2 ± 0.32 %ID/g. It also gave a tissue uptake at 24 h (Seminal uptake) of 0.7 ± 0.5 %ID/g, a tissue uptake at 72 h (Seminal uptake) of 0.23 ± 0.11 %ID/g and a tissue uptake at 120 h (Seminal uptake) of 0.15 ± 0.05 %ID/g. For the same compound, the tissue uptake at 1 h (Spleen uptake) was 2.54 ± 0.27 %ID/g, the tissue uptake at 4 h (Spleen uptake) was 1.54 ± 0.27 %ID/g and the tissue uptake at 24 h (Spleen uptake) was 1.21 ± 0.24 %ID/g. It also gave a tissue uptake at 72 h (Spleen uptake) of 1.03 ± 0.46 %ID/g, a tissue uptake at 120 h (Spleen uptake) of 1.53 ± 0.71 %ID/g and a tissue uptake at 1 h (Stomach uptake) of 0.89 ± 0.15 %ID/g. It also gave a tissue uptake at 4 h (Stomach uptake) of 0.71 ± 0.15 %ID/g, a tissue uptake at 24 h (Stomach uptake) of 0.68 ± 0.15 %ID/g and a tissue uptake at 72 h (Stomach uptake) of 0.31 ± 0.17 %ID/g. It also gave a tissue uptake at 120 h (Stomach uptake) of 0.15 ± 0.1 %ID/g, a tissue uptake at 1 h (Tail uptake) of 5.38 ± 5.96 %ID/g and a tissue uptake at 4 h (Tail uptake) of 6.89 ± 5.96 %ID/g. The tissue uptake at 24 h (Tail uptake) was 1.55 ± 0.34 %ID/g, the tissue uptake at 72 h (Tail uptake) was 0.44 ± 0.15 %ID/g and the tissue uptake at 120 h (Tail uptake) was 0.24 ± 0.04 %ID/g. It also gave a tissue uptake at 1 h (Testes uptake) of 3.24 ± 0.4 %ID/g, a tissue uptake at 4 h (Testes uptake) of 3.45 ± 0.4 %ID/g and a tissue uptake at 24 h (Testes uptake) of 2.15 ± 0.33 %ID/g. The tissue uptake at 72 h (Testes uptake) was 1.38 ± 0.48 %ID/g, the tissue uptake at 120 h (Testes uptake) was 0.98 ± 0.22 %ID/g and the tissue uptake at 1 h (Thyroid uptake) was 4.8 ± 0.32 %ID/g. It also gave a tissue uptake at 4 h (Thyroid uptake) of 3.57 ± 0.32 %ID/g, a tissue uptake at 24 h (Thyroid uptake) of 1.95 ± 0.32 %ID/g and a tissue uptake at 72 h (Thyroid uptake) of 0.85 ± 0.28 %ID/g. It also gave a tissue uptake at 120 h (Thyroid uptake) of 0.52 ± 0.12 %ID/g, a tissue uptake at 1 h (Tumor uptake) of 14.2 ± 7.67 %ID/g and a tissue uptake at 4 h (Tumor uptake) of 27.9 ± 7.67 %ID/g. For the same compound, the tissue uptake at 24 h (Tumor uptake) was 57.2 ± 10.1 %ID/g, the tissue uptake at 72 h (Tumor uptake) was 69.1 ± 13.4 %ID/g and the tissue uptake at 120 h (Tumor uptake) was 86.4 ± 8.05 %ID/g.
